The values below come from patent US20240400708A1.

B1: feline IgG1a A378N (antibody, part only; not given: variable domains and light chain, not shown: another chain or arm of the molecule)
constant: ASTTAPSVFPLAPSCGTTSGATVALACLVLGYFPEPVTVSWNSGALTSGVHTFPAVLQASGLYSLSSMVTVPSSRWLSDTFTCNVAHPPSNTKVDKTVRKTDHPPGPKPCDCPKCPPPEMLGGPSIFIFPPKPKDTLSISRTPEVTCLVVDLGPDDSDVQITWFVDNTQVYTAKTSPREEQFNSTYRVVSVLPILHQDWLKGKEFKCKVNSKSLPSPIERTISKAKGQPHEPQVYVLPPAQEELSRNKVSVTCLIKSFHPPDINVEWEITGQPEPENNYRTTPPQLDSDGTYFVYSKLSVDRSHWQRGNTYTCSVSHEALHSHHTQKSLTQSPGK
B2: feline IgG1a A378M (antibody, part only; not given: Variable domains, not shown: another chain or arm of the molecule)
constant: ASTTAPSVFPLAPSCGTTSGATVALACLVLGYFPEPVTVSWNSGALTSGVHTFPAVLQASGLYSLSSMVTVPSSRWLSDTFTCNVAHPPSNTKVDKTVRKTDHPPGPKPCDCPKCPPPEMLGGPSIFIFPPKPKDTLSISRTPEVTCLVVDLGPDDSDVQITWFVDNTQVYTAKTSPREEQFNSTYRVVSVLPILHQDWLKGKEFKCKVNSKSLPSPIERTISKAKGQPHEPQVYVLPPAQEELSRNKVSVTCLIKSFHPPDIMVEWEITGQPEPENNYRTTPPQLDSDGTYFVYSKLSVDRSHWQRGNTYTCSVSHEALHSHHTQKSLTQSPGK
B3: feline IgG1a A378P (antibody, part only; not given: Variable domains, not shown: another chain or arm of the molecule)
constant: ASTTAPSVFPLAPSCGTTSGATVALACLVLGYFPEPVTVSWNSGALTSGVHTFPAVLQASGLYSLSSMVTVPSSRWLSDTFTCNVAHPPSNTKVDKTVRKTDHPPGPKPCDCPKCPPPEMLGGPSIFIFPPKPKDTLSISRTPEVTCLVVDLGPDDSDVQITWFVDNTQVYTAKTSPREEQFNSTYRVVSVLPILHQDWLKGKEFKCKVNSKSLPSPIERTISKAKGQPHEPQVYVLPPAQEELSRNKVSVTCLIKSFHPPDIPVEWEITGQPEPENNYRTTPPQLDSDGTYFVYSKLSVDRSHWQRGNTYTCSVSHEALHSHHTQKSLTQSPGK
B4: feline IgG1a mutant ID No. 253: S428M, S434L (antibody, part only; not given: Variable domains, not shown: another chain or arm of the molecule)
constant: ASTTAPSVFPLAPSCGTTSGATVALACLVLGYFPEPVTVSWNSGALTSGVHTFPAVLQASGLYSLSSMVTVPSSRWLSDTFTCNVAHPPSNTKVDKTVRKTDHPPGPKPCDCPKCPPPEMLGGPSIFIFPPKPKDTLSISRTPEVTCLVVDLGPDDSDVQITWFVDNTQVYTAKTSPREEQFNSTYRVVSVLPILHQDWLKGKEFKCKVNSKSLPSPIERTISKAKGQPHEPQVYVLPPAQEELSRNKVSVTCLIKSFHPPDIAVEWEITGQPEPENNYRTTPPQLDSDGTYFVYSKLSVDRSHWQRGNTYTCSVMHEALHLHHTQKSLTQSPGK
B5: feline IgG1a mutant ID No. 298: S428Y, Q311W, D312P, L314K (antibody, part only; not given: Variable domains, not shown: another chain or arm of the molecule)
constant: ASTTAPSVFPLAPSCGTTSGATVALACLVLGYFPEPVTVSWNSGALTSGVHTFPAVLQASGLYSLSSMVTVPSSRWLSDTFTCNVAHPPSNTKVDKTVRKTDHPPGPKPCDCPKCPPPEMLGGPSIFIFPPKPKDTLSISRTPEVTCLVVDLGPDDSDVQITWFVDNTQVYTAKTSPREEQFNSTYRVVSVLPILHWPWKKGKEFKCKVNSKSLPSPIERTISKAKGQPHEPQVYVLPPAQEELSRNKVSVTCLIKSFHPPDIAVEWEITGQPEPENNYRTTPPQLDSDGTYFVYSKLSVDRSHWQRGNTYTCSVYHEALHSHHTQKSLTQSPGK
B6: feline IgG1a mutant ID No. 307: D401R, T403R (antibody, part only; not given: Variable domains, not shown: another chain or arm of the molecule; small tags and cut ends)
constant: ASTTAPSVFPLAPSCGTTSGATVALACLVLGYFPEPVTVSWNSGALTSGVHTFPAVLQASGLYSLSSMVTVPSSRWLSDTFTCNVAHPPSNTKVDKTVRKTDHPPGPKPCDCPKCPPPEMLGGPSIFIFPPKPKDTLSISRTPEVTCLVVDLGPDDSDVQITWFVDNTQVYTAKTSPREEQFNSTYRVVSVLPILHQDWLKGKEFKCKVNSKSLPSPIERTISKAKGQPHEPQVYVLPPAQEELSRNKVSVTCLIKSFHPPDIAVEWEITGQPEPENNYRTTPPQLDSRGRYFVYSKLSVDRSHWQRGNTYTCSVSHEALHSHHTQKSLTQSPGK
B7: feline IgG1a mutant ID No. 304: D399M, D401R (antibody, part only; not given: variable domains and light chain, not shown: another chain or arm of the molecule; small tags and cut ends)
constant: ASTTAPSVFPLAPSCGTTSGATVALACLVLGYFPEPVTVSWNSGALTSGVHTFPAVLQASGLYSLSSMVTVPSSRWLSDTFTCNVAHPPSNTKVDKTVRKTDHPPGPKPCDCPKCPPPEMLGGPSIFIFPPKPKDTLSISRTPEVTCLVVDLGPDDSDVQITWFVDNTQVYTAKTSPREEQFNSTYRVVSVLPILHQDWLKGKEFKCKVNSKSLPSPIERTISKAKGQPHEPQVYVLPPAQEELSRNKVSVTCLIKSFHPPDIAVEWEITGQPEPENNYRTTPPQLMSRGTYFVYSKLSVDRSHWQRGNTYTCSVSHEALHSHHTQKSLTQSPGK
B8: feline IgG1a mutant ID No. 265: Q311W, D312P, L314K, S434Y (antibody, part only; not given: Variable domains, not shown: another chain or arm of the molecule)
constant: ASTTAPSVFPLAPSCGTTSGATVALACLVLGYFPEPVTVSWNSGALTSGVHTFPAVLQASGLYSLSSMVTVPSSRWLSDTFTCNVAHPPSNTKVDKTVRKTDHPPGPKPCDCPKCPPPEMLGGPSIFIFPPKPKDTLSISRTPEVTCLVVDLGPDDSDVQITWFVDNTQVYTAKTSPREEQFNSTYRVVSVLPILHWPWKKGKEFKCKVNSKSLPSPIERTISKAKGQPHEPQVYVLPPAQEELSRNKVSVTCLIKSFHPPDIAVEWEITGQPEPENNYRTTPPQLDSDGTYFVYSKLSVDRSHWQRGNTYTCSVSHEALHYHHTQKSLTQSPGK
B9: feline IgG1a mutant ID No. 264: D312P, L314K, S434Y (antibody, part only; not given: Variable domains, not shown: another chain or arm of the molecule)
constant: ASTTAPSVFPLAPSCGTTSGATVALACLVLGYFPEPVTVSWNSGALTSGVHTFPAVLQASGLYSLSSMVTVPSSRWLSDTFTCNVAHPPSNTKVDKTVRKTDHPPGPKPCDCPKCPPPEMLGGPSIFIFPPKPKDTLSISRTPEVTCLVVDLGPDDSDVQITWFVDNTQVYTAKTSPREEQFNSTYRVVSVLPILHQPWKKGKEFKCKVNSKSLPSPIERTISKAKGQPHEPQVYVLPPAQEELSRNKVSVTCLIKSFHPPDIAVEWEITGQPEPENNYRTTPPQLDSDGTYFVYSKLSVDRSHWQRGNTYTCSVSHEALHYHHTQKSLTQSPGK
B10: feline IgG1a mutant ID No. 306: D399M, T403R (antibody, part only; not given: Variable domains, not shown: another chain or arm of the molecule; small tags and cut ends)
constant: ASTTAPSVFPLAPSCGTTSGATVALACLVLGYFPEPVTVSWNSGALTSGVHTFPAVLQASGLYSLSSMVTVPSSRWLSDTFTCNVAHPPSNTKVDKTVRKTDHPPGPKPCDCPKCPPPEMLGGPSIFIFPPKPKDTLSISRTPEVTCLVVDLGPDDSDVQITWFVDNTQVYTAKTSPREEQFNSTYRVVSVLPILHQDWLKGKEFKCKVNSKSLPSPIERTISKAKGQPHEPQVYVLPPAQEELSRNKVSVTCLIKSFHPPDIAVEWEITGQPEPENNYRTTPPQLMSDGRYFVYSKLSVDRSHWQRGNTYTCSVSHEALHSHHTQKSLTQSPGK
B11: feline IgG1a mutant ID No. 286: S252Y, S428Y, D312P, L314K (antibody, part only; not given: Variable domains, not shown: another chain or arm of the molecule)
constant: ASTTAPSVFPLAPSCGTTSGATVALACLVLGYFPEPVTVSWNSGALTSGVHTFPAVLQASGLYSLSSMVTVPSSRWLSDTFTCNVAHPPSNTKVDKTVRKTDHPPGPKPCDCPKCPPPEMLGGPSIFIFPPKPKDTLYISRTPEVTCLVVDLGPDDSDVQITWFVDNTQVYTAKTSPREEQFNSTYRVVSVLPILHQPWKKGKEFKCKVNSKSLPSPIERTISKAKGQPHEPQVYVLPPAQEELSRNKVSVTCLIKSFHPPDIAVEWEITGQPEPENNYRTTPPQLDSDGTYFVYSKLSVDRSHWQRGNTYTCSVYHEALHSHHTQKSLTQSPGK
B12: feline IgG1a mutant ID No. 255: S428M, S434P (antibody, part only; not given: Variable domains, not shown: another chain or arm of the molecule)
constant: ASTTAPSVFPLAPSCGTTSGATVALACLVLGYFPEPVTVSWNSGALTSGVHTFPAVLQASGLYSLSSMVTVPSSRWLSDTFTCNVAHPPSNTKVDKTVRKTDHPPGPKPCDCPKCPPPEMLGGPSIFIFPPKPKDTLSISRTPEVTCLVVDLGPDDSDVQITWFVDNTQVYTAKTSPREEQFNSTYRVVSVLPILHQDWLKGKEFKCKVNSKSLPSPIERTISKAKGQPHEPQVYVLPPAQEELSRNKVSVTCLIKSFHPPDIAVEWEITGQPEPENNYRTTPPQLDSDGTYFVYSKLSVDRSHWQRGNTYTCSVMHEALHPHHTQKSLTQSPGK
B13: feline IgG1a mutant ID No. 275: S252R, S434R (antibody, part only; not given: Variable domains, not shown: another chain or arm of the molecule)
constant: ASTTAPSVFPLAPSCGTTSGATVALACLVLGYFPEPVTVSWNSGALTSGVHTFPAVLQASGLYSLSSMVTVPSSRWLSDTFTCNVAHPPSNTKVDKTVRKTDHPPGPKPCDCPKCPPPEMLGGPSIFIFPPKPKDTLRISRTPEVTCLVVDLGPDDSDVQITWFVDNTQVYTAKTSPREEQFNSTYRVVSVLPILHQDWLKGKEFKCKVNSKSLPSPIERTISKAKGQPHEPQVYVLPPAQEELSRNKVSVTCLIKSFHPPDIAVEWEITGQPEPENNYRTTPPQLDSDGTYFVYSKLSVDRSHWQRGNTYTCSVSHEALHRHHTQKSLTQSPGK
B14: feline IgG1a mutant ID No. 284: S252Y, Q311W, D312P, S434Y (antibody, part only; not given: Variable domains, not shown: another chain or arm of the molecule)
constant: ASTTAPSVFPLAPSCGTTSGATVALACLVLGYFPEPVTVSWNSGALTSGVHTFPAVLQASGLYSLSSMVTVPSSRWLSDTFTCNVAHPPSNTKVDKTVRKTDHPPGPKPCDCPKCPPPEMLGGPSIFIFPPKPKDTLYISRTPEVTCLVVDLGPDDSDVQITWFVDNTQVYTAKTSPREEQFNSTYRVVSVLPILHWPWLKGKEFKCKVNSKSLPSPIERTISKAKGQPHEPQVYVLPPAQEELSRNKVSVTCLIKSFHPPDIAVEWEITGQPEPENNYRTTPPQLDSDGTYFVYSKLSVDRSHWQRGNTYTCSVSHEALHYHHTQKSLTQSPGK
B15: feline IgG1a mutant ID No. 302: A431K, S434P (antibody, part only; not given: Variable domains, not shown: another chain or arm of the molecule)
constant: ASTTAPSVFPLAPSCGTTSGATVALACLVLGYFPEPVTVSWNSGALTSGVHTFPAVLQASGLYSLSSMVTVPSSRWLSDTFTCNVAHPPSNTKVDKTVRKTDHPPGPKPCDCPKCPPPEMLGGPSIFIFPPKPKDTLSISRTPEVTCLVVDLGPDDSDVQITWFVDNTQVYTAKTSPREEQFNSTYRVVSVLPILHQDWLKGKEFKCKVNSKSLPSPIERTISKAKGQPHEPQVYVLPPAQEELSRNKVSVTCLIKSFHPPDIAVEWEITGQPEPENNYRTTPPQLDSDGTYFVYSKLSVDRSHWQRGNTYTCSVSHEKLHPHHTQKSLTQSPGK

The term Kd denotes the concentration at which binding is half-saturated. Higher therefore signals lower affinity.

In one experiment the target is feline FcRn complex (FcRn-α subunit and β-microglobulin), biotin labeled (feline). Kind of experiment: SPR, pH 6. (In general: SPR reads the build-up and loss of mass on a sensor chip optically.)
In turn, B1 registered a Kd of 28.6 nM.

In turn, B2 returned a Kd of 26.6 nM.

B3 registered a Kd of 68.4 nM.

The target in a further experiment is feline FcRn complex (FcRn-α subunit and β-microglobulin) (feline). As to the kind of experiment: SPR (Biacore), FcRn on SA chip, pH 6.
Regarding “feline IgG1a mutant ID No. 259: S428L (antibody)”, the Kd worked out at 24.5 nM.

“feline IgG1a mutant ID No. 262: S428L (antibody)” registered a Kd of 25.4 nM.

“feline IgG1a mutant ID No. 263: S252Y, S254T, T256E (antibody)” had a dissociation constant (Kd) of 14 nM.

As to B4, the Kd was 8 nM.

In turn, B5 came in with a Kd of 25.3 nM.

Molecule B6 registered a Kd of 15.9 nM.

Turning to B7, the dissociation constant (Kd) stood at 5.43 nM.

As for B8, the dissociation constant (Kd) worked out at 7.95 nM.

Turning to B9, the Kd amounted to 71.7 nM.

B10 gave a Kd of 12.8 nM.

With B11, the dissociation constant Kd was found to be 27 nM.

In turn, B12 registered a dissociation constant Kd of 7.53 nM.

B13: the Kd came out at 78.6 nM.

B14 displayed a Kd of 7.27 nM.

For the molecule B15, the Kd turned out to be 2.17 nM.
